Results: patent US12692310B2, “ASIC1 channel antagonist antibody” (ShanghaiTech University, priority 2019, dated 2026)

Assays:
[1] = pH stability, SEC-HPLC analysis; type: physicochemical; set-up: dose or concentration left out as unconfirmed; conditions: pH 7.4 to 5.0, 6 h at 37° C.
Description: The tolerance of ASC06-IgG1 to acidic conditions was tested. A concentrated ASC06-IgG1 solution ([…]) was incubated at different pH values (from 7.4 to 5.0) for 6 h at 37° C. and subjected to SEC-HPLC analysis.

[2] = target: T1, hASIC1a-eYFP (Homo sapiens, UniProt P78348); experiment: Species/subtype selectivity, FACS binding and ICC, transfected CHO-K1 cells; type: cell-based; set-up: overexpress the full-length hASIC1a (1-528 amino acids) protein fused with eYFP; expressed in transfected cells; host or cells: CHO-K1, transient
T1 sequence (P78348 1-528): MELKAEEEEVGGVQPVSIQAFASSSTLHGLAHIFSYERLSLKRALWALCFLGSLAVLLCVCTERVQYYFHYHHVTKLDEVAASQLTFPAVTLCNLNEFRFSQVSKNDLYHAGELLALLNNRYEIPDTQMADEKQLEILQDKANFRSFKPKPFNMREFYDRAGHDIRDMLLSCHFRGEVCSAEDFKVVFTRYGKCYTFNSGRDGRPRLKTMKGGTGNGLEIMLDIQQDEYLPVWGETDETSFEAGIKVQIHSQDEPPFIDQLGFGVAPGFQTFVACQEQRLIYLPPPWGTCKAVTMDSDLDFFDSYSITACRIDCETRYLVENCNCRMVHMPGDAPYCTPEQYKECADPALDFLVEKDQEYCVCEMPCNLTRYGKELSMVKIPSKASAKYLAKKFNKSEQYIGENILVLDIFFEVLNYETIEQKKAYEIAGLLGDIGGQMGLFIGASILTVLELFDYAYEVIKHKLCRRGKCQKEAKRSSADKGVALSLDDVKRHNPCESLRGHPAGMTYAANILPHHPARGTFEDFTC
Description: Cell Membrane Colocalization Studies Using Immunocytochemistry (ICC). Cells (CHO-K1) were seeded onto the poly-D-lysine-coated glass bottom 24-well plates at a concentration of 2×10^5 cells per mL. After 12 h of cultivation, the CHO-K1 cells were transfected with ASIC plasmids by Lipofectin 3000 reagent. Twenty-four hours after transfection, the cells were fixed in 4% paraformaldehyde and incubated for 30 min in a blocking solution (5% goat serum in PBS). The resulting cells were incubated with […] ASC06-IgG1 at 4° C. overnight followed by three PBS washes for 5 min each and incubation with the Alexa555-conjugated goat anti-human secondary antibody (Life Technology). After three additional PBS washes for 5 min each, the nuclei of the cells were stained with DAPI (#10236276001; Roche). The ICC analysis was performed on a laser scanning confocal microscopy (ZEISS LSM710) with a 63×N.A. 1.4 objective at 25° C. Images were collected on a 1,024×1,024-pixel EM-CCD camera. […]
To test the species and subtype selectivity of ASC06-IgG1, vectors encoding human ASIC1b-eYFP fusion, rat ASIC1a-eYFP fusion, mouse ASIC1a-eYFP fusion, hASIC2a-eYFP fusion, hASIC2b-eYFP fusion, and hASIC3a-eYFP fusion were constructed. […] FACS binding assay and immunocytochemistry (ICC) were carried out to determine if ASC06-IgG1 is able to bind to the cell surface-expressed ASIC homologs and isotypes.

[3] = target: T2, hASIC1a (Homo sapiens, UniProt P78348); experiment: Whole-cell patch clamp, acid-induced hASIC1a currents in stable CHO-K1 cells; type: cell-based
T2 construct: expressed in transfected cells
T2 sequence (P78348 1-528): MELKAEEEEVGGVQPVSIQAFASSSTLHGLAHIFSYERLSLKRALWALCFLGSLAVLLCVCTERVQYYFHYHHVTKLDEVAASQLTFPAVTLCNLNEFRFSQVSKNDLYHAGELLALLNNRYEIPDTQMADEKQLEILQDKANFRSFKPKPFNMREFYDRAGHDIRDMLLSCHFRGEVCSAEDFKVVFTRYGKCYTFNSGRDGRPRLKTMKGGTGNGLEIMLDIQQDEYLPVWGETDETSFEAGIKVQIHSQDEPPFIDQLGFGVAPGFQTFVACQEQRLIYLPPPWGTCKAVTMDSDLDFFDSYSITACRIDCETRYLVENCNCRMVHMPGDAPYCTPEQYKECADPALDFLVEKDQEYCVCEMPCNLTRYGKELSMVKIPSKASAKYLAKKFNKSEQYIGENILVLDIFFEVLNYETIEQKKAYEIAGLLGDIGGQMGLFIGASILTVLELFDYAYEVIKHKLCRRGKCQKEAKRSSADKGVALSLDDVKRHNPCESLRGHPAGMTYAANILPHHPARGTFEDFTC
Description: Electrophysiological Experiments. The inward cellular ASIC1a current was recorded from a single cell using standard whole-cell recording techniques by a patch-clamp amplifier (Axon 200B; Axon Instruments). Membrane currents were sampled and analyzed using a Digidata 1320A interface and a personal computer with Clampex and Clampfit software (Version 9.0.1; Axon Instruments). For a typical experiment, the extracellular fluid (ECF) used contained 150 mM NaCl, 5 mM KCl, 10 mM HEPES, 10 mM D-glucose, 2 mM CaCl2, and 1.0 mM MgCl2, with the osmotic pressure in the range of 320-335 mOsm, and pH 7.4 adjusted with 5 M NaOH. Patch electrodes (4-6 MΩ) contained 30 mM NaCl, 120 mM KCl, 0.5 mM CaCl2, 1 mM MgCl2, 10 mM HEPES, 2 mM MgATP, and 5 mM EGTA (pH 7.2 adjusted with 5 M KOH) at 300 mOsm. The ASIC1a activating ECF is identical to the normal ECF, except that MES was used to replace HEPES to maintain the ECF at pH 6.0. A coverslip with discretely distributed individual CHO-ASIC1a stable cells (6H7) on the surface was placed into a recording chamber under a constant perfusion (~2-3 mL/min) generated by an ALA 8 channel perfusion system (ALA Scientific Instruments Inc.) mounted on an inverted microscope. After achieving the break-in (whole-cell) configuration, the cell was voltage clamped at a holding potential of −70 mV. The normal ECF (pH 7.4) was first perfused onto the patched cell, and then, the activating ECF of pH 6.0 was rapidly applied to elicit a maximum inward ASIC1a current as control current. When testing the inhibition effect of the antibody, ECFs of pH 7.4 containing different concentrations of ASC06-IgG1 were perfused from low to high concentration into the recording chamber for 10-15 min. To measure the inhibition of the current, the activating ECFs of pH 6.0 containing the corresponding concentrations of the testing antibodies were applied to the same patched 6H7 cell to generate the inward currents that can be normalized to the control current of the same cell. […] Data acquired from four to five cells were used for statistical calculation of inhibition effects.
The function of ASC06-IgG1 was characterized using electrophysiology approach. The effect of ASC06-IgG1 antibody on the acid-induced, hASIC1a-mediated electrical current in cells was analyzed. PcTx1 was used as a positive control. […] The amplitudes of the hASIC1a-mediated inward currents of the stable cells were recorded and quantitated in the absence and presence of ASC06-IgG1, with venom peptide PcTx1 (100 nM) used as positive control. […] Unlike the sustained inhibition with the antibody after washing, the inhibition with PcTx1 could be readily washed out within 5 minutes (FIG. 5C).

B1: ASC06-IgG1: ASC06 antibody converted into a full length IgG1 form (antibody, V domains shown)
VH: QVQLQQSGGGLVQPGGSLRLSCAASGFTFSSYAMSWVRQAPGKGLEWVSAISGSGGSTYYADSVKGRFTISRDNSKNTLYLQMNSLRAEDTAVYYCAKDSFYGYSKGDWGQGTLVTVSS
VL: QSALTQPASVSGSPGQSITISCTGTSSDVGAYNYVSWYQQQPGKAPKLMIYGVSNRPSGVSNRFSGSKSGNAASLTISGLQAEDEADYYCSSYTSSSTYVFGTGTKLTVLG
[1]
  degradation or aggregation by SEC-HPLC: no significant degradation or aggregation
[2]; FACS
  FACS recognition of human ASIC1a: recognized
[2]; ICC staining
  ICC membrane co-localization with hASIC1a-eYFP: membrane co-localization
[3]; after washing
  duration of sustained inhibition during washout: 30 min
[3]; dose-dependent
  maximal inhibition of the acid (pH 6.0)-induced currents: up to 80%
